Where two headings read alike, the source gives them in different places.
Experiments:
[1] = molecular target: T1, human 4-1BB on the surface of HEK293-Hu4-1BB cells (human, UniProt Q07011 24-255); assay: cell-based or functional assay
[2] = molecular target: T1, human 4-1BB on the surface of …; assay: FACS on HEK293 cells highly expressing human 4-1BB
Text: (§1) HEK293-Hu4-1BB cells were obtained by transient transfection of HEK293 cells (ATCC CRL-1573) with a gene expressing human 4-1BB protein or polypeptide (CD137 cDNA ORF Clone, Human, C-OFPSpark tag; purchased from Sino Biological, Cat #HG10041-ACR). The cell culture medium was DMEM (Gibco, Cat #11995065) containing 10% fetal bovine serum. The experimental medium was sterile PBS (phosphate-buffered saline, pH 7.40) containing 2% fetal bovine serum. HEK293-Hu4-1BB cells were washed with the experimental medium twice and seeded into a 96-well U-bottom plate at 1×10⁵ HEK293-Hu4-1BB cells per well. Different concentrations of the anti-4-1BB single-domain antibody VHH-Fc samples to be tested were added. The cells were incubated at 4° C. for 1 h and then washed with the experimental medium twice. Then the goat anti-human IgG (H+L) Alexa Fluor 488 antibody (Thermo, Cat #A11013) was added. After two washes, fluorescence signal values were measured using a flow cytometer. Urelumab was used as a positive control.
A comparison of the antigen-binding activity of C5_V2 and C5_V2-YTI was made using a FACS assay as described in Example 5.

[3] = molecular target: T1, human 4-1BB on the surface of …; assay: FACS on HEK293 cells highly expressing human 4-1BB; remark: listed apart in the source
Text: as §1
The antigen-binding activity of the humanized antibodies was measured using a FACS assay as described in Example 2.

[4] = molecular target: T1, human 4-1BB on the surface of …; assay: cell-based or functional assay; remark: listed apart in the source

T1 sequence (Q07011 24-255): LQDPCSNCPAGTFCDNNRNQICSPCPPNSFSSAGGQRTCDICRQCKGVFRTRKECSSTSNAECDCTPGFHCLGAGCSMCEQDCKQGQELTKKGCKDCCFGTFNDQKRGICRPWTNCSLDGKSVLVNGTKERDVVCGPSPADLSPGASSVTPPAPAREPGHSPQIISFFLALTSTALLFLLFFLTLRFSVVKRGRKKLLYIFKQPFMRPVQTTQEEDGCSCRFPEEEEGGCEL

B1: Urelumab (antibody, V domains shown)
VH: QVQLQQWGAGLLKPSETLSLTCAVYGGSFSGYYWSWIRQSPEKGLEWIGEINHGGYVTYNPSLESRVTISVDTSKNQFSLKLSSVTAADTAVYYCARDYGPGNYDWYFDLWGRGTLVTVSS
VL: EIVLTQSPATLSLSPGERATLSCRASQSVSSYLAWYQQKPGQAPRLLIYDASNRATGIPARFSGSGSGTDFTLTISSLEPEDFAVYYCQQRSNWPPALTFGGGTKVEIK
Factor of variation in Emax, FcγRIIb-mediated activation of HEK293-4-1BB cells [1]: 2.61 fold | Factor of variation in Emax, activation of HEK293-4-1BB cells [1]: 1.7 fold | EC50 [2]: 1.64 nM | Maximal fluorescence value [2]: 39700 | EC50 [3]: 1.18 nM | Maximal fluorescence value [3]: 1000 | EC50, 4-1BB/NF-κB luciferase reporter, FcγRIIb cross-linking [4]: 0.027 nM | EC50, 4-1BB/NF-κB luciferase reporter, no FcγRIIb cross-linking [4]: 2.19 nM | Emax, 4-1BB/NF-κB luciferase reporter, FcγRIIb cross-linking [4]: 9.39 relative to antibody-free group | Emax, 4-1BB/NF-κB luciferase reporter, no FcγRIIb cross-linking [4]: 4.3 relative to antibody-free group

— US20250026842A1 (JIANGSU HENGRUI PHARMACEUTICALS, published 2025)
